Residue numbers refer to the chain shown, from its start. Names and notes keep the numbering of the source.
T1: SUMO-FtsZ (6×His-SUMO fusion of full length FtsZ) (E. coli, UniProt P0A9A6 1-383)
T1 sequence: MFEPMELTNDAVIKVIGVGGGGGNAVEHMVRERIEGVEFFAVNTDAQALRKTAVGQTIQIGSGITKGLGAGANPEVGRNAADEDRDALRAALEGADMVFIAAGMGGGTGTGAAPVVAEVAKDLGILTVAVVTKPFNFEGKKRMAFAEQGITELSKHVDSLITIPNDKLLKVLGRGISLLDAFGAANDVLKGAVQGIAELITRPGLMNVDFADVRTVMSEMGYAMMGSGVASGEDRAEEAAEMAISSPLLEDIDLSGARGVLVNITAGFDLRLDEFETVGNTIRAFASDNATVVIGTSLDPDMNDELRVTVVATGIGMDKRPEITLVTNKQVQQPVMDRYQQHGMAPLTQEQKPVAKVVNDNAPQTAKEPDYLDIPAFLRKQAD

B1: 6×His-ZapC (natural protein)
chain: not shown
B2: FtsZ (wild type, untagged) (natural protein)
chain: T1 sequence
B3: FtsZ^F285S (untagged) (natural protein)
chain: T1 sequence with F285S
B4: FtsZ^D360Y (untagged) (natural protein)
chain: T1 sequence with D360Y
B5: FtsZ^I323L (untagged) (natural protein)
chain: T1 sequence with I323L
B6: FtsZ^A376T (untagged) (natural protein)
chain: T1 sequence with A376T
B7: FtsZ^1-370 (domain or fragment)
chain: MFEPMELTNDAVIKVIGVGGGGGNAVEHMVRERIEGVEFFAVNTDAQALRKTAVGQTIQIGSGITKGLGAGANPEVGRNAADEDRDALRAALEGADMVFIAAGMGGGTGTGAAPVVAEVAKDLGILTVAVVTKPFNFEGKKRMAFAEQGITELSKHVDSLITIPNDKLLKVLGRGISLLDAFGAANDVLKGAVQGIAELITRPGLMNVDFADVRTVMSEMGYAMMGSGVASGEDRAEEAAEMAISSPLLEDIDLSGARGVLVNITAGFDLRLDEFETVGNTIRAFASDNATVVIGTSLDPDMNDELRVTVVATGIGMDKRPEITLVTNKQVQQPVMDRYQQHGMAPLTQEQKPVAKVVNDNAPQTAKEPD
B8: SUMO-FtsZ^316-383 (domain or fragment)
chain: GMDKRPEITLVTNKQVQQPVMDRYQQHGMAPLTQEQKPVAKVVNDNAPQTAKEPDYLDIPAFLRKQAD
B9: ZapC (untagged) (natural protein)
chain: not shown

Key:
[1] = target: B2; experiment: BLI
FtsZ^F285S (untagged) = target: B3; experiment: BLI
FtsZ^A376T (untagged) = target: B6; experiment: co-sedimentation
FtsZ^D360Y (untagged) = target: B4; experiment: co-sedimentation
FtsZ^I323L (untagged) = target: B5; experiment: co-sedimentation
[2] = target: 6×His-ZapC F30D K94D double mutant (E. coli, UniProt P75862 1-180, F30D | K94D); experiment: BLI
[3] = target: the molecule itself; experiment: sedimentation of polymers by ultracentrifugation
[4] = target: the molecule itself; experiment: negative stain electron microscopy
6×His-ZapC = target: B1; experiment: BLI
ZapC (untagged) = target: B9; experiment: BLI
[5] = target: T1, SUMO-FtsZ (6×His-SUMO fusion of full …); experiment: BLI

Binder: B1
Kd [1]: 0.39 µM
Kd (FtsZ^F285S (untagged)): 6.37 µM
binding result (FtsZ^A376T (untagged)): binds
binding result (FtsZ^D360Y (untagged)): binds
binding result (FtsZ^I323L (untagged)): binds

Binder: B2
Kd relative to wild-type ZapC (times higher) [2]: 12 times
binding result [3]: binds

Binder: B3
binding result [3]: binds

Binder: B4
binding result [4]: binds

Binder: B5
binding result [4]: binds

Binder: B6
binding result [4]: binds

Binder: B7
binding affinity relative to wild-type FtsZ (fold lower) (6×His-ZapC): ~3 fold

Binder: B8
Kd (ZapC (untagged)): 10 µM

Binder: B9
Kd [5]: 1.5 µM
